The values that follow come from patent publication US20260116996A1 (REGENTS OF THE UNIVERSITY OF MINNESOTA, published 2026).

The target in one assay is T1, human serpinB5 (human, UniProt P36952 1-375).
T1 construct: Luminex antigen captured from a 293 cell lysate; not shown: V5-His tag of the pcDNA3.1 Directional V5-His-TOPO vector
T1 sequence (looked up): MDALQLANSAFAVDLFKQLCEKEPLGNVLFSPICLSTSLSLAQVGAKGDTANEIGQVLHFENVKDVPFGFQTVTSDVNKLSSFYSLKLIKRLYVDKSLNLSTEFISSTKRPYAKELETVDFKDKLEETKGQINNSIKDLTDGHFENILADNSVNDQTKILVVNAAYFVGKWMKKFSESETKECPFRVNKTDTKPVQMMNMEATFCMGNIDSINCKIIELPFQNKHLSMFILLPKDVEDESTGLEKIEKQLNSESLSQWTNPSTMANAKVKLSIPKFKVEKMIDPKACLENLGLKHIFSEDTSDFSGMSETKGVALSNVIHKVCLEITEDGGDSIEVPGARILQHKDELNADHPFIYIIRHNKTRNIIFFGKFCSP
The assay is described as follows: Luminex bead assay, beads coated with human serpinB5, background (Gfp and Scgn beads) subtracted. Here is the method:
(§1) The latter was determined as the average antibody binding to Luminex beads coated with Gfp and Scgn control antigens. Similar data were obtained for antigen binding of Fab fragments of these antibodies (data not shown).
(§2) Luminex assay. Luminex-based technology was used to measure serpinB13 AA in human samples. Initially, the Luminex beads were precoated with serpinB13, Gfp and Scgn, using precleared lysates of 293 cells that had been transfected with individual cDNAs. Biotinylated mouse anti-human K and 2 chain mAbs (BD Biosciences) (dilution 1:300) and streptavidin (Invitrogen) (dilution 1:200) were used as secondary reagents to measure human serum binding activity to individual antigens. The data were expressed as fluorescence intensity (F.I.) due to serum binding activity in the presence of beads precoated with serpinB13 and after subtracting the average F.I. due to serum binding activity in the presence of beads precoated with control proteins, Gfp and Scgn (e.g. F.I.^B13-[F.I.^GFP+F.I.^Segn]/2). The samples were evaluated based on the level of F.I. and the degree of inhibition of binding to serpin-B13 coated beads with soluble serpinB13 (2.5 μg/mL), compared with the bovine serum albumin (BSA). […] All samples were run blind on three independent occasions. Subjects with serum samples that produced a positive results three times were considered positive. Subjects with serum samples that produced a negative result on at least one occasion were considered negative.
(§3) To determine whether anti-serpin activity is specific, binding of three human recombinant antibodies to serpinB13 was examined for potential cross-reactivity with other clade B serpins. Binding to the beads conjugated with Gfp and Scgn was used to subtract the background and the assay was developed using the same reagents as those described above for measuring serpinB13 AA in serum samples.

A further assay deals with T2, human serpinB8 (human, UniProt P50452 1-374).
T2 construct: Luminex antigen captured from a 293 cell lysate; not shown: V5-His tag of the pcDNA3.1 Directional V5-His-TOPO vector
T2 sequence (looked up): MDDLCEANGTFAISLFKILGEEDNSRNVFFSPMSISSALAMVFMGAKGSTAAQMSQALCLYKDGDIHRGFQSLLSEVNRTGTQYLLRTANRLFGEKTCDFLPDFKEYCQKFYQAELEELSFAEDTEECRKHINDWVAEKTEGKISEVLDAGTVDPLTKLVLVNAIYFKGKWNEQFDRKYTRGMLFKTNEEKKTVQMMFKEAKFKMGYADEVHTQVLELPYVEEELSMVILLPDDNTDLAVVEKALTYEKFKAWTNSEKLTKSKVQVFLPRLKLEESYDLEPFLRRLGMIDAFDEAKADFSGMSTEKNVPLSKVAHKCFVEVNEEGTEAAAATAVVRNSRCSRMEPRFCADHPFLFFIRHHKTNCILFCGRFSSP
The assay is described as follows: Luminex bead assay, beads coated with human serpinB8, background (Gfp and Scgn beads) subtracted. How it is done:
as §1, §2, §3

B1: recombinant fully human anti-serpinB13 antibody Clone 2 (antibody, human IgG1, kappa, V domains shown)
VH: QMQLVQSGGGVVRPGGSLRLSCAASGFTFDDYGMSWVRQAPGKGLEWVSGINWNGGSTGYADSVKGRFTISRDNAKNSLYLQMNSLRAEDTALYYCARESSMTTVTTYLLREVGVGLDFDYWGQGTLVTVSS
VL: ETTLTQSPGTLSLSPGERATLSCRASQTVSGSYLAWYQQKPGQPPRLLIYGASSRATGIPDRFSGSGSGTDFTLTISRLEPEDFAVYYCQDYGSSRTFGQGTKVELKR
notes: also called mAb2; CLONE2-H(m1) / CLONE2-L(m1)
For the molecule B1, the binding result with human serpinB5 and in the assay with human serpinB8 was “no binding (tested: 1.0 µg/mL)” in each case.

B2: recombinant fully human anti-serpinB13 antibody Clone 3 (antibody, human IgG1, kappa, V domains shown)
VH: QVQLQQWGAGLLKPSETLSLTCAVYGGSFSGYYWSWIRQPPGKGLEWIGEINHSGSTNYNPSLKSRVTISVDTSKNQFSLKLSSVTAADTAVYYCARRYCSGGSCYLVGTGSELDYWGQGTLVTVSS
VL: DIQMTQSPSTLSASVGDRVTITCRASQSISSWLAWYQQKPGKAPKLLIYKASSLEIGVPSRFSGSGYGTEFTLTISSLQPDDFATYYCLQYSTHSTFGQGTRVEIKR
notes: also called mAb3; CLONE3-H(m1) / CLONE3-L(m1)
On to B2, for which the binding result with human serpinB5 and with human serpinB8 was “no binding (tested: 1.0 µg/mL)” each time.

B3: recombinant fully human anti-serpinB13 antibody Clone 1 (antibody, human IgG1, kappa, V domains shown)
VH: QVQLQESGGGVVQPGRSLRLSCAASGFTFSSYGMHWVRQAPGKGLEWVAVISYDGSNKYYADSVKGRFTISRDNSKNTLYLQMNSLRAEDTAVYYCARDLGAVIAVAGTSTPYNWFDPWGQGTLVTVSS
VL: DVVMTQSPLSLPVTPGEPASISCRSRQSLLHSNGHNYLGWYLQKPGQSPQLLIYLASIRASGIPDRFSGSGSGTDFTLKISRVEAEDVGVYYCMQALQTPYTFGQGTKLEIKR
notes: also called mAb1; mAbs1
Regarding B3, the binding result with human serpinB5 and in the assay with human serpinB8 was “no binding (tested: 1.0 µg/mL)” each time.
